Article PMC6765112, “Specificity of MYB interactions relies on motifs in ordered and disordered contexts” (Nucleic Acids Research, 2019)
Read-outs that look alike come from different tables or passages of the source. Ends that are not written are not given here. * marks the point of attachment. Biotin = O=C1N[C@H]2[C@H](CS[C@H]2CCCCC(=O)*)N1

B1: MYC4 N-terminal domain (L55-N253) (domain or fragment, Arabidopsis thaliana, UniProt O49687 55-253, looked up)
chain: LPQVNEDNLQQRLQALIEGANENWTYAVFWQSSHGFAGEDNNNNNTVLLGWGDGYYKGEEEKSRKKKSNPASAAEQEHRKRVIRELNSLISGGVGGGDEAGDEEVTDTEWFFLVSMTQSFVKGTGLPGQAFSNSDTIWLSGSNALAGSSCERARQGQIYGLQTMVCVATENGVVELGSSEIIHQSSDLVDKVDTFFNFN
notes: MYC4, Arabidopsis thaliana, N-terminal domain with the JID, residues L55-N253 (AA55-253); recombinant protein of 22.7 kDa; expressed from pET52u; source: E. coli BL21(DE3), purified (HisTrap HP IMAC, dialysed to PBS pH 7.4 with 1 mM DTT); not shown: 6xHis, C-terminal, kept

Assays:
[1] = target: T1, L190V-MIM peptide (F180-G201 of MYB29, L190V) (Arabidopsis thaliana, UniProt Q9FLR1 180-201, L190V, biotin on the N-terminus); experiment: BLI; biotinylated peptide (1 μM) immobilised on streptavidin biosensors; MYC4Nt 130 to 0.1 μM; PBS pH 7.4, 1 mM DTT, 0.05% bovine serum albumin; BLItz; equilibrium responses fitted to a Hill equation; details: both partners purified
T1 construct: MYB29, Arabidopsis thaliana, 22 residues F180-G201; source: synthetic peptide (TAG Copenhagen A/S)
T1 peptide (looked up): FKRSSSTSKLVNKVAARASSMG

GL3 [2] = experiment: Split-ubiquitin assay, GL3 as bait; assay type: cell-based, Arabidopsis thaliana; details: yeast, SD-AHLW growth
Experimental: The rapamycin-compatible yeast strain NMY51 TOR1-1 Δfpr1 ([35]) was transformed according to DUALhunter™ kit instructions (Dualsystems biotech). Briefly, overnight 2×YPAD cultures were diluted to OD600 = 0.2, and incubated at 30°C, 150 RPM for 4–6 h in 2×YPAD, before harvesting the cells by centrifugation at 700 g for 5 min. The cells were washed with H2O, then 0.1 M LiOAc, before resuspending in 0.1 M LiOAc with 15% glycerol. The competent cells were then aliquoted and stored at −80°C until transformation. For double transformation with bait and prey plasmids, competent cells were thawed on ice, and mixed with transformation mix (240 μl 50% PEG-3350, 35 μl 1 M LiOAc and 25 μl 2 mg/ml ssDNA per transformation) and 200 ng of each plasmid, before being exposed to a 42°C heat shock in a water bath for 45 min. The cells were then chilled on ice for a few minutes, sedimented by centrifugation (3000 g, 1 min), resuspended in sterile H2O, plated on SD-LW plates and grown at 30°C for 2–3 days.
For drop tests, cells from three individual colonies of each bait/prey combination were grown overnight in liquid SD-LW media. Next day, culture densities were normalized to OD600 = 0.05, dilution series (OD600 = 0.05, OD600 = 0.005, OD600 = 0.0005 and OD600 = 0.00005) were spotted on square plates (SD-LW, SD-AHLW and SD-AHLW+Rapa) and grown for 2 days at 30°C before taking pictures.
To identify interaction sites mediating specific MYB–MYC complex formation, we selected two TFs from each family. These were MYB28 and MYB29 from MYB subgroup 12, and two of their partner bHLH TFs, MYC3 and MYC4. To define the region mediating the interactions we applied a chemically inducible dimerization split-ubiquitin system ([35]). […] This is used as an in-built positive control for correct expression and functionality of the prey fusion protein and thereby reduces the incidence of false negatives.

GL3 [3] = details: ref [32]; cited from earlier work
Source text: To identify interaction sites mediating specific MYB–MYC complex formation, we selected two TFs from each family. These were MYB28 and MYB29 from MYB subgroup 12, and two of their partner bHLH TFs, MYC3 and MYC4. To define the region mediating the interactions we applied a chemically inducible dimerization split-ubiquitin system ([35]). […] As controls, we included the interaction between GL3 and MYB75, where a fragment c ...

[4] = target: T2, MYC4 N-terminal domain (L55-N253) (Arabidopsis thaliana, UniProt O49687 55-253); experiment: BLI
T2 chain: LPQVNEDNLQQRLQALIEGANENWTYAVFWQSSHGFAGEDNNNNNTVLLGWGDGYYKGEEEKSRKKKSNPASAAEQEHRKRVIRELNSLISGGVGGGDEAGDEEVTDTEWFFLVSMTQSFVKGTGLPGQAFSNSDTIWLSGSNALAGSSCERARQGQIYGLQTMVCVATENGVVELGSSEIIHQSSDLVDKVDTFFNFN

[5] = target: B1; experiment: BLI; biotinylated peptide (1 μM) immobilised on streptavidin biosensors; MYC4Nt 130 to 0.1 μM; PBS pH 7.4, 1 mM DTT, 0.05% bovine serum albumin; BLItz; equilibrium responses fitted to a Hill equation; details: both partners purified

Molecule: B1
- fold weaker affinity than the WT-MIM peptide [1]: ~10 fold

B2: non-MYB region of MYB75: non-MYB region of MYB75 (residues K110-D248) (protein)
chain: KKHEPCCKIKMKKRDITPIPTTPALKNNVYKPRPRSFTVNNDCNHLNAPPKVDVNPPCLGLNINNVCDNSIIYNKDKKKDQLVNNLIDGDNMWLEKFLEESQEVDILVPEATTTEKGDTLAFDVDQLWSLFDGETVKFD
modifications: left off: NubG and FRB (from the vector pFRB), end not stated, kept
- interaction with GL3 (in words) (GL3 [2]): does not
- interaction with GL3 (in words) (GL3 [3]): unable to interact

B3: WT-MIM peptide (F180-G201 of MYB29) (peptide, UniProt Q9FLR1 180-201, looked up)
peptide: Biotin-FKRSSSTSKLLNKVAARASSMG
notes: source: synthetic peptide (TAG Copenhagen A/S)
- Kd [4]: 1900 nM
- Kd [5]: 2700 ± 800 nM
